Test results from PMC3154929, “Phosphatase-Coupled Universal Kinase Assay and Kinetics for First-Order-Rate Coupling Reaction” (PLoS ONE, 2011).

B1: human glucokinase (GCK) (Homo sapiens) (protein)
chain: VEQILAEFQLQEEDLKKVMRRMQKEMDRGLRLETHEEASVKMLPTYVRSTPEGSEVGDFLSLDLGGTNFRVMLVKVGEGEEGQWSVKTKHQMYSIPEDAMTGTAEMLFDYISECISDFLDKHQMKHKKLPLGFTFSFPVRHEDIDKGILLNWTKGFKASGAEGNNVVGLLRDAIKRRGDFEMDVVAMVNDTVATMISCYYEDHQCEVGMIVGTGCNACYMEEMQNVELVEGDEGRMCVNTEWGAFGDSGELDEFLLEYDRLVDESSANPGQQLYEKLIGGKYMGELVRLVLLRLVDENLLFHGEASEQLRTRGAFETRFVSQVESDTGDRKQIYNILSTLGLRPSTTDCDIVRRACESVSTRAAHMCSAGLAGVINRMRESRSEDVMRITVGVDGSVYKLHPSFKERFHASVRRLTPSCEITFIESEEGSGRGAALVSAVACKKACMLGQ
notes: V16 to Q465, N-terminal 6xHis tag, expressed in E. coli
B2: CD39L2 (ENTPD6) (Mus musculus) (protein)
chain: MRKIPNHGTLRMTKVAYPLGLCVGLFIYVAYIKWHRASAAQAFFTIAGAASGARWTQQAFSSPGSAARGHEVFYGIMFDAGSTGTRIHVFQFARPPGETPTLTHETFKALKPGLSAYADDVEKSAQGIQELLNVAKQHIPYDFWKATPLVLKATAGLRLLPGEKAQKLLQKVKEVFKASPFLVGDDCVSIMNGTDEGVSAWITVNFLTGSLKTPGSSSVGMLDLGGGSTQITFLPRVEGTLQASPPGHLTALQMFNRTYKLYSYSYLGLGLMSARLAILGGVEGKPAENDKELVSPCLSPRFRGEWEHAEVTYRISGQKAVGLYELCASRVSEVLRNKVHRTEEAQHVDFYAFSYYYDLAASFGLIDAEKGGSLVVGDFEIAAKYVCRTLETQPPSSPFACMDLTYISLLLHEFGFPGDKVLKLARKIDNVETSWALGAIFHYIDSLKRQKVPAL
notes: recombinant, R&D Systems

How the values were obtained:
[1] = substrate: Nc1ncnc2c1ncn2[C@@H]1O[C@H](COP(=O)(O)OP(=O)(O)OP(=O)(O)O)[C@@H](O)[C@H]1O; experiment: purified protein; type: biochemical, Homo sapiens; conditions: 20 mM glucose, 10 mM MgCl2, 10 mM CaCl2, 150 mM NaCl, 25 mM Tris pH 7.5, room temperature
[2] = substrate: Nc1ncnc2c1ncn2[C@@H]1O[C@H](COP(=O)(O)OP(=O)(O)OP(=O)(O)O)[C@@H](O)[C@H]1O; experiment: malachite green phosphate release assay; type: biochemical, Mus musculus; conditions: 25 mM Tris, 150 mM NaCl, 10 mM MgCl2, 10 mM CaCl2, pH 7.5, room temperature
From the text: (§1) malachite green phosphate release assay on CD39L2 (ENTPD6)

[3] = substrate: Nc1ncnc2c1ncn2[C@@H]1O[C@H](COP(=O)(O)OP(=O)(O)O)[C@@H](O)[C@H]1O; experiment: malachite green phosphate release assay; type: biochemical, Mus musculus; conditions: 25 mM Tris, 150 mM NaCl, 10 mM MgCl2, 10 mM CaCl2, pH 7.5, room temperature
From the text: as §1

| Protein | Km [1] | Km [2] | Vmax [2] | kcat [2] | kcat/Km [2] | Km [3] | Vmax [3] | kcat [3] | kcat/Km [3] |
| --- | --- | --- | --- | --- | --- | --- | --- | --- | --- |
| B1 | 3550 µM |  |  |  |  |  |  |  |  |
| B2 |  | 1140 µM | 0.928 µmol/min/mg | 0.617 s⁻¹ | 727 M⁻¹ s⁻¹ | 1050 µM | 49.1 µmol/min/mg | 38.5 s⁻¹ | 36600 M⁻¹ s⁻¹ |
